Assay results published in patent US20240174744A1 (SCIRHOM, published 2024).
Residue numbers refer to the chain shown, from its start.

T1: hiR2-FL-P533-T7 (human iRhom2 full length with deletion of P533, 3 x T7 tag) (human, UniProt Q6PJF5 1-856)
T1 construct: The change is a deletion of one residue, not a substitution
T1 sequence: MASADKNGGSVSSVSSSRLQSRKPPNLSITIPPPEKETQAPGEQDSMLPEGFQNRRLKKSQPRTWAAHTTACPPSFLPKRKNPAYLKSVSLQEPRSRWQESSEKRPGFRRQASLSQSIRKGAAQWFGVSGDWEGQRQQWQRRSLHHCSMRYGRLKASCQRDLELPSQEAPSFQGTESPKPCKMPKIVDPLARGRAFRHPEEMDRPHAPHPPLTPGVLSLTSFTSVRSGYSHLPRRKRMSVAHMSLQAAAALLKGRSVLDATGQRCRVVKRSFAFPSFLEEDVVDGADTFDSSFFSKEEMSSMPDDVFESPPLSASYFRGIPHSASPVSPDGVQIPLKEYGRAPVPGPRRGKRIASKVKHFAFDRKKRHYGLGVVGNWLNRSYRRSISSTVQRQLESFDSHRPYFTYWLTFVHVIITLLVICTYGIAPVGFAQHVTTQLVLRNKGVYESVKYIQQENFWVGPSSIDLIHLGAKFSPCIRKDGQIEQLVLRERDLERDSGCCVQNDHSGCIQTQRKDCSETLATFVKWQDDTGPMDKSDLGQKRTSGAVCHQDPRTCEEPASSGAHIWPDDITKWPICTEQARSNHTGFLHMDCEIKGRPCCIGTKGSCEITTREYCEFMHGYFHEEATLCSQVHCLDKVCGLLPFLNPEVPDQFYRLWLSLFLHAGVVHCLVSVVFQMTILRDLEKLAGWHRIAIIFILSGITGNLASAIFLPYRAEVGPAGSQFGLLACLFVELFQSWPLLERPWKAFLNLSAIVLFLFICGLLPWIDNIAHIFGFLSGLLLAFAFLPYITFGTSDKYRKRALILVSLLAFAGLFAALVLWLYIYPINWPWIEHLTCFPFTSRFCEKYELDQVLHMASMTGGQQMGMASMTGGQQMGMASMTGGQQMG

B1: antibody 43 (antibody, V domains shown)
VH: QVALKESGPGILQPSQTLSLTCSFSGFSLSTFGMGVGWIRQSSGKGLEWLANIWWDDDKYYNPALKSRLTISKDASKNQAFLKIANVDTADTATYYCARIGNYGSNYWYFDVWGTGTTVTVSS
VL: QIVLTQSPAIMSASPGERVTMTCSANSRISYMYWYQQKPGSSPRLLIYDTSNLASGVPVRFSGSGSGTSYSLTISRMEAEDAATYNCQQWSSYPLTFGAGTKLELK
notes: Mouse IgG, kappa light chain; also called clone #43
B2: antibody 5 (antibody, V domains shown)
VH: B1 VH with A3T, S42P, N52H, D58E, P63S, D74A, A75T, G101S, D111N
VL: QVVLTQSPALMSASPGEKVTMTCSAGSSVSCMYWYQQKPGSSPRVLIYDTSNLASGVPARFTGSGSGTSYSLTISRMEAEDAASYYCQQWNSYPLTFGAGTKLELK
notes: Mouse IgG, kappa light chain; also called clone #5; purified antibody 5
B3: antibody 44 (antibody, V domains shown)
VH: B1 VH with A3T, S42P, G44E, N52H, A75T, A80I, A85T, D91E, A98S
VL: QIVLTQSPAVMSASPGEKVTMTCTASSSVYYMYWYQQTPGSSPRLLIYDTSNLASGVPVRFSGSGSGTSYSLTISRMEAEDAATYYCQQWNTYPLTFGAGTKLELK
notes: Mouse IgG, kappa light chain; also called clone #44; m44
B4: antibody 42 (antibody, V domains shown)
VH: B1 VH with A3T, F24L, M34R, S42P, N52H, D58E, A75T, A80V, K83R, G101Q
VL: B1 VL with Q1L, R18K, S24G, N26T, Y33F, L45V, M77V, A82V, N86Y, S91N
notes: Mouse IgG, kappa light chain; also called clone #42; m42
B5: antibody 22 (antibody, V domains shown)
VH: B1 VH with A3T, S42P, N52H, D58E, P63S, D74A, A75T, A80V, G101S, D111N
VL: B2 VL with C31Y, S84T
notes: Mouse IgG, kappa light chain; also called clone #22; m22
B6: antibody 34 (antibody, V domains shown)
VH: QVTLKESGPGILQPSQTLSLTCSFSGFSLSTFSLGVGWIRQSSGKGLEWLAHIWWDDEKYYNPALKSRLTISKDTSKNQVFLKIANVDAADTATYYCARAYYSKSYYALDYWGQGTSVTVSS
VL: DIQMTQSPSSLSASLGERVSLTCRASQEISGYLSWLQQKPDGTIKRLIYAASTLDSGVPKRFSGSRSGSDYSLAISSLESEDFADYYCLQYANFPFTFGSGTKLEIK
notes: Mouse IgG, kappa light chain; also called clone #34; m34
B7: antibody 16 (antibody, V domains shown)
VH: QVTLKESGPGILQPSQTLSLTCSFSGFSLSTFALGVGWIRQPSGRGLEWLAHIWWDDDKYYNPALKSRLTISKDTSKNHVFLKIANVDTADTATYYCARITTYYYGMDYWGQGTSVTVSS
VL: DIVLSQSPATLSVTPGDSVSLFCRASQSIGNHLHWYQQESHASPRLLIKYASQSISGIPSRFSGSGSGTDFTLSINSVETEDFGMYFCQQSYNWPLTFGAGTKLELK
notes: Mouse IgG, kappa light chain; also called clone #16; m16
B8: antibody 3 (antibody, V domains shown)
VH: QVTLKESGPGILQPSQTLSLTCSFSGFSLTTFAMGIGWVRQPSGKGLEWLAHIWWDGEKYNNPVLKSRLTISKDTSKNQVFLRIANVDTPDTATYYCARISSIYYIIDNWGQGTSVTVSS
VL: B7 VL with S5T, D17H, F22S, G30S, H32N, Q38K, E39K, A42E, A51V
notes: Mouse IgG, kappa light chain; also called clone #3; purified antibody 3

What follows are binders tested against T1, hiR2-FL-P533-T7 (human iRhom2 full …) (assay: FACS on cells of the row P533-).
B1: no binding (tested: 3 µg/ml).
B2: no binding (tested: 3 µg/ml).
B3: no binding (tested: 3 µg/ml).
B4: no binding (tested: 3 µg/ml).
B5: no binding (tested: 3 µg/ml).
B6: no binding (tested: 3 µg/ml).
B7: no binding (tested: 3 µg/ml).

The binders below were run against T1, hiR2-FL-P533-T7 (human iRhom2 full …) (assay: FACS on cells of the row P533-, vs human iR2 wild type = 100%).
Excerpt: In brief, immortalized MEF-DKO-hiR2-FL-WT-T7 cells, MEF-DKO-miR2-FL-WT-T7 cells and MEF-DKO-hiR2-FL-R441K-T7, MEF-DKO-hiR2-FL-K443R-T7, MEF-DKO-hiR2-FL-V459I-T7, MEF-DKO-hiR2-FL-G481Q-T7, MEF-DKO-hiR2-FL-L488R-T7, MEF-DKO-hiR2-FL-L493I-T7, MEF-DKO-hiR2-FL-D496T-T7, MEF-DKO-hiR2-FL-H505R-T7, MEF-DKO-hiR2-FL-Q512L-T7, MEF-DKO-hiR2-FL-R513K-T7, MEF-DKO-hiR2-FL-D528N-T7, MEF-DKO-hiR2-FL-P533-T7, MEF-DKO-hiR2-FL-M534S-T7, MEF-DKO-hiR2-FL-G540S-T7, MEF-DKO-hiR2-FL-R543Q-T7, MEF-DKO-hiR2-FL-T544P-T7, MEF-DKO-hiR2-FL-G546A-T7, MEF-DKO-hiR2-FL-A547V-T7, MEF-DKO-hiR2-FL-R582Q-T7, MEF-DKO-hiR2-FL-F588L-T7, MEF-DKO-hiR2-FL-M591I-T7, MEF-DKO-hiR2-FL-E594K-T7, MEF-DKO-hiR2-FL-E626D-T7, MEF-DKO-hiR2-FL-L657I-T7, and MEF-DKO-hiR2-FL-H835Y-T7 cells were harvested with 10 mM EDTA in PBS, washed and resuspended in FACS buffer (PBS, 3% FBS, 0.05% sodium azide), and seeded in Nunc U-bottom 96-well plates (Thermo Fisher Scientific, USA) at approximately 3×10⁵ cells per well. To pellet cells and remove supernatants, the plates were centrifuged at 1,500 rpm and 4° C. for 3 minutes. For primary staining, cells were resuspended in 100 μl per well of either FACS buffer alone (controls) or the purified antibodies 3, 5, 16, 22, 34, 42, 43, 44, 48, and 50 of the present disclosure at 3 μg/ml FACS buffer and incubated on ice for 1 hour. Afterwards, plates were centrifuged at 1,500 rpm and 4° C. for 3 minutes and washed twice with 200 μl per well of FACS buffer. For secondary staining, cells were spun down and resuspended in 100 μl per well of PE-conjugated goat anti-mouse IgG F(ab′)2 detection fragment (Dianova, Germany) diluted 1:100 in FACS buffer. Protected from light, the cell suspensions were incubated on ice for 1 hour. Plates were then centrifuged at 1,500 rpm and 4° C. for 3 minutes and washed three times with 200 μl per well of FACS buffer. Finally, cells were resuspended in 150 μl per well of FACS buffer and analyzed using a BD Accuri™ C6 Plus flow cytometer (Becton Dickinson, Germany).
For B1, the “grade of loss of binding vs wild type” value was 3 grade (3 => 95% loss of binding vs wild type).
In the case of B2, the “grade of loss of binding vs wild type” value is reported as 3 grade (3 => 95% loss of binding vs wild type).
For B3, the “grade of loss of binding vs wild type” value was 3 grade (3 => 95% loss of binding vs wild type).
B4 was tested, and the “grade of loss of binding vs wild type” value was 3 grade (3 => 95% loss of binding vs wild type).
B5 was tested, and the “grade of loss of binding vs wild type” value was 3 grade (3 => 95% loss of binding vs wild type).
In the case of B6, the “grade of loss of binding vs wild type” value is reported as 3 grade (3 => 95% loss of binding vs wild type).
For B7, the “grade of loss of binding vs wild type” value was 3 grade (3 => 95% loss of binding vs wild type).
For B8, the “grade of loss of binding vs wild type” value was 3 grade (3 => 95% loss of binding vs wild type).
